Experimental data reported in publication PMC11178655, “Dosimetry and pharmacokinetics of [^177Lu]Lu-satoreotide tetraxetan in patients with progressive neuroendocrine tumours” (European Journal of Nuclear Medicine and Molecular Imaging, 2024).
Several values for one entry are separate records, joined by “and”; a condition that tells them apart may be missing. Equal entries are not always repeated. Where a SMILES comes first, the peptide text is derived from it. Bridges are numbered along the chain shown (N, C = ends). [ ]: non-standard residue; d: D form. The star is where a group is joined. DOTA = O=C(O)CN1CCN(CC(=O)O)CCN(CC(=O)*)CCN(CC(=O)O)CC1; dPhe(4-NHCONH2) = NC(=O)Nc1ccc(C[C@@H](N)C(=O)O)cc1; Dihydroorotyl(S) = O=C1C[C@@H](C(=O)*)NC(=O)N1; Phe(4-Cl) = N[C@@H](Cc1ccc(Cl)cc1)C(=O)O; Phe(4-NH2) = Nc1ccc(C[C@H](N)C(=O)O)cc1

System: patients with progressive, SSTR-positive NETs
Test: Patient-specific image-based dosimetry (NUKDOS) of tumours and organs, phase I/II trial
Type: in vivo, human
Protocol: In both parts A and B of the study, patients underwent planar whole-body imaging at 4 h and 1, 2, 3, and 6 days after each [^177Lu]Lu-satoreotide tetraxetan treatment cycle. Patients in part A also underwent single-photon emission computed tomography/computed tomography (SPECT/CT) at 24 h after each [^177Lu]Lu-satoreotide tetraxetan cycle. Those in part B underwent SPECT/CT, immediately before or after planar scintigraphy, at 4 h, and 1, 2, 3, and 6 days after each [^177Lu]Lu-satoreotide tetraxetan administration. Full details of the image acquisition methodology are provided in the Supplementary Information.
Delineation of tumour volumes was performed on anatomical SPECT/CT images after each [^177Lu]Lu-satoreotide tetraxetan administration. Tumours with a longest diameter < 2 cm were not analysed due to the difficulty in correcting for partial volume effects caused by the limited spatial resolution of the SPECT/CT systems. For study inclusion in part A, one tumour lesion ≥ 2 cm must have been present for eligibility; in part B, two or more tumour lesions ≥ 2 cm must have been present, each with an uptake on SSTR imaging higher than that of normal liver parenchyma (target lesion on [^68Ga]Ga-DOTA-TATE or -DOTA-TOC positron emission tomography: maximum standardised uptake value [SUVmax] ≥ 2x the mean SUV [SUVmean] of liver background; or ^111In-scintigraphy/SPECT: Krenning score 3 or 4 [uptake > normal liver, or uptake > spleen or kidneys, respectively [26]]).
Reconstruction parameters were set up to produce isotropic voxels of < 5 mm; voxels were continuous throughout the field of view. Anatomic coverage of the acquisition was determined according to the patients’ tumour locations on the planar whole-body scan acquisition with liver, both kidneys and spleen in the same bed position. For organs showing [^177Lu]Lu-satoreotide tetraxetan uptake, regions of interest (ROIs)/volumes of interest (VOIs) were drawn manually over the whole organs of interest (whole body, left and right kidneys, liver, spleen, and bone marrow), using the NUKDOS software for planar whole-body scans and the SPECT/CT acquired in part A [27]. VOIs for the same organs were drawn for all SPECT/CT images acquired in part B. All ROIs/VOIs were then used for activity quantification. Time-integrated activity coefficients (TIACs) for a given source volume were computed by integrating the time-activity curves. Full details of the tumour delineation and activity quantification methodology are provided in the Supplementary Information.
Patient-specific dosimetry calculations were performed after each treatment cycle in both parts A and B, using the absorbed dose calculation features of the NUKDOS software for image-based dosimetry calculations. The NUKDOS software was chosen as it allowed for an integral approach to organ dosimetry (including image quantification, time-activity curve-fitting and dosimetry calculation). For the bone marrow, both image-based and blood-based calculations were performed in part A [28, 29]. In part B, only image-based bone marrow dosimetry was performed. Organ Level INternal Dose Assessment/EXponential Modelling (OLINDA/EXM) version 1.0 software, the most widely used version at the time of the study, was used to perform model-based dosimetry calculations, which were only performed after the first [^177Lu]Lu-satoreotide tetraxetan cycle for patients in part B. To generate organ-specific absorbed doses, TIACs were used as input data. Full details on OLINDA/EXM software settings and organ-specific TIAC calculation methods are provided in the Supplementary Information.
All images were acquired with a 20% energy window around the main photopeak of ^177Lu (208 keV). For scatter correction, the triple-energy window method was applied based on the recommendation of the Committee on Medical Internal Radiation Dose. Whole-body images were acquired with a scanning time of 20 cm/min in a 256 × 1,024 matrix. […]

[1] = Part B Cohort 3 (4.5 GBq, 300 µg; 700 µg at cycle 2), median (range), n = 8
[2] = Part B Cohort 3 (4.5 GBq/cycle), image-based dosimetry, median (range), n = 6
[3] = Part B Cohort 3 (4.5 GBq/cycle), median (range), n = 8
[4] = Part B Cohort 3 (4.5 GBq/cycle), median (range), n = 9
[5] = Part B Cohort 3, median (range), n = 8
[6] = Part B Cohort 6 (4.5 GBq/cycle), median (range), n = 6
[7] = Part B Cohort 6 (4.5 GBq/cycle), median (range), n = 7
[8] = Part B Cohort 6 (4.5 GBq/cycle), median (range), n/n-les 4/9

SMILES: C[C@@H](O)[C@@H]1NC(=O)[C@H](CCCCN)NC(=O)[C@@H](Cc2ccc(NC(N)=O)cc2)NC(=O)[C@H](Cc2ccc(NC(=O)[C@@H]3CC(=O)NC(=O)N3)cc2)NC(=O)[C@H](NC(=O)[C@H](Cc2ccc(Cl)cc2)NC(=O)CN2CCN(CC(=O)O)CCN(CC(=O)O)CCN(CC(=O)O)CC2)CSSC[C@@H](C(=O)N[C@H](Cc2ccc(O)cc2)C(N)=O)NC1=O [[^177Lu]Lu-satoreotide tetraxetan, metal not drawn] ({DOTA}-[Phe(4-Cl)][dC][Phe(4-NH2)](Dihydroorotyl(S))[dPhe(4-NHCONH2)]KTC[dY]-NH2; disulfide 2-7 (inferred); C-terminus assumed)
- Cycle 3 ADC, Kidneys [1]: 0.8 (0.4–1.2) Gy/GBq
- Cycle 3 ADC, Tumours [1]: 5.5 (2.6–16.8) Gy/GBq
- Ratio of ADCs Cycle 2/Cycle 1 (700 vs. 300 µg), Bone marrow [2]: 95.0 (36.4–143) %
- Ratio of ADCs Cycle 2/Cycle 3 (700 vs. 300 µg), Bone marrow [2]: 95.0 (60.0–125) %
- Ratio of ADCs Cycle 2/Cycle 3 (700 vs. 300 µg), Spleen (Part B Cohort 3 (4.5 GBq/cycle), median (range), n = 5): 79.3 (61.2–90.8) %
- Ratio of ADCs Cycle 2/Cycle 1 (700 vs. 300 µg), Spleen (Part B Cohort 3 (4.5 GBq/cycle), median (range), n = 6): 61.9 (45.9–108) %
- Ratio of ADCs Cycle 2/Cycle 3 (700 vs. 300 µg), Body [3]: 101 (78.7–132) %
- Ratio of ADCs Cycle 2/Cycle 3 (700 vs. 300 µg), Kidney [3]: 82.0 (64.8–110) %
- Ratio of ADCs Cycle 2/Cycle 1 (700 vs. 300 µg), Body [4]: 83.3 (52.8–100) %
- Ratio of ADCs Cycle 2/Cycle 1 (700 vs. 300 µg), Kidney [4]: 80.8 (61.0–113) %
- Ratio of ADCs Cycle 2/Cycle 3 (700 vs. 300 µg), Liver lesions (Part B Cohort 3 (4.5 GBq/cycle), median (range), n/n-les 6/9): 68.9 (57.3–121) %
- Ratio of ADCs Cycle 2/Cycle 1 (700 vs. 300 µg), Liver lesions (Part B Cohort 3 (4.5 GBq/cycle), median (range), n/n-les 7/10): 70.4 (52.4–95.7) %
- Ratio of ADCs Cycle 2/Cycle 3 (700 vs. 300 µg), All lesions (Part B Cohort 3 (4.5 GBq/cycle), median (range), n/n-les 8/15): 77.6 (52.4–121) %
- Ratio of ADCs Cycle 2/Cycle 1 (700 vs. 300 µg), All lesions (Part B Cohort 3 (4.5 GBq/cycle), median (range), n/n-les 9/17): 62.5 (27.6–95.7) %
- Ratio of Cycle 3/ Cycle 1 ADCs, Bone marrow (Part B Cohort 3, image-based dosimetry, median (range), n = 6): 106 (36.4–138) %
- Ratio of Cycle 3/ Cycle 1 ADCs, Spleen (Part B Cohort 3, median (range), n = 5): 87.8 (76.0–152) %
- Ratio of Cycle 3/ Cycle 1 ADCs, Kidneys [5]: 94.1 (78.9–146) %
- Ratio of Cycle 3/ Cycle 1 ADCs, Tumours [5]: 80.5 (44.1–152) %
- Cycle 1 ADC, Bone marrow (Part B Cohort 6 (4.5 GBq, 300 µg), image-based dosimetry, median (range), n = 6): 0.1 (0.0–0.2) Gy/GBq
- Cycle 1 ADC, Spleen (Part B Cohort 6 (4.5 GBq, 300 µg), median (range), n = 6): 0.8 (0.4–1.0) Gy/GBq
- Cycle 1 ADC, Tumours (Part B Cohort 6 (4.5 GBq, 300 µg), median (range), n = 8): 13.5 (2.2–81.0) Gy/GBq
- Cycle 1 ADC, Kidneys (Part B Cohort 6 (4.5 GBq, 300 µg), median (range), n = 9): 0.8 (0.4–1.1) Gy/GBq
- Cycle 3 ADC, Bone marrow (Part B Cohort 6 (4.5 GBq, 300 µg; 1,300 µg at cycle 2), image-based dosimetry, median (range), n = 3): 0.1 (0.0–0.1) Gy/GBq
- Cycle 3 ADC, Spleen (Part B Cohort 6 (4.5 GBq, 300 µg; 1,300 µg at cycle 2), median (range), n = 4): 0.8 (0.7–1.5) Gy/GBq
- Cycle 3 ADC, Tumours (Part B Cohort 6 (4.5 GBq, 300 µg; 1,300 µg at cycle 2), median (range), n = 5): 7.7 (3.2–70.3) Gy/GBq
- Cycle 3 ADC, Kidneys (Part B Cohort 6 (4.5 GBq, 300 µg; 1,300 µg at cycle 2), median (range), n = 6): 0.8 (0.7–1.2) Gy/GBq
- Ratio of ADCs Cycle 2/Cycle 3 (1300 vs. 300 µg), Bone marrow (Part B Cohort 6 (4.5 GBq/cycle), image-based dosimetry, median (range), n = 3): 114 (50.0–120) %
- Ratio of ADCs Cycle 2/Cycle 1 (1300 vs. 300 µg), Bone marrow (Part B Cohort 6 (4.5 GBq/cycle), image-based dosimetry, median (range), n = 4): 200 (80.0–240) %
- Ratio of ADCs Cycle 2/Cycle 3 (1300 vs. 300 µg), Spleen (Part B Cohort 6 (4.5 GBq/cycle), median (range), n = 4): 49.7 (49.3–52.6) %
- Ratio of ADCs Cycle 2/Cycle 1 (1300 vs. 300 µg), Spleen (Part B Cohort 6 (4.5 GBq/cycle), median (range), n = 5): 48.0 (44.3–94.4) %
- Ratio of ADCs Cycle 2/Cycle 3 (1300 vs. 300 µg), Body [6]: 87.6 (72.7–102) %
- Ratio of ADCs Cycle 2/Cycle 3 (1300 vs. 300 µg), Kidney [6]: 72.4 (52.8–96.3) %
- Ratio of ADCs Cycle 2/Cycle 1 (1300 vs. 300 µg), Body [7]: 82.3 (48.3–97.6) %
- Ratio of ADCs Cycle 2/Cycle 1 (1300 vs. 300 µg), Kidney [7]: 92.5 (65.9–121) %
- Ratio of ADCs Cycle 2/Cycle 1 (1300 vs. 300 µg), Liver lesions [8]: 48.4 (24.7–76.5) %
- Ratio of ADCs Cycle 2/Cycle 3 (1300 vs. 300 µg), Liver lesions [8]: 67.9 (40.6–104) %
- Ratio of ADCs Cycle 2/Cycle 3 (1300 vs. 300 µg), All lesions (Part B Cohort 6 (4.5 GBq/cycle), median (range), n/n-les 5/11): 67.9 (40.6–104) %
- Ratio of ADCs Cycle 2/Cycle 1 (1300 vs. 300 µg), All lesions (Part B Cohort 6 (4.5 GBq/cycle), median (range), n/n-les 6/13): 44.4 (24.7–76.5) %
- Ratio of Cycle 3/ Cycle 1 ADCs, Bone marrow (Part B Cohort 6, image-based dosimetry, median (range), n = 3): 200 (175–400) %
- Ratio of Cycle 3/ Cycle 1 ADCs, Spleen (Part B Cohort 6, median (range), n = 3): 185 (84.2–192) %
- Ratio of Cycle 3/ Cycle 1 ADCs, Tumours (Part B Cohort 6, median (range), n = 4): 79.0 (28.6–114) %
- Ratio of Cycle 3/ Cycle 1 ADCs, Kidneys (Part B Cohort 6, median (range), n = 5): 143 (88.8–198) %
- Cumulative bone marrow absorbed dose, single patient (cohort 1 patient, one cycle at 5.9 GBq, developed grade 3 thrombocytopenia): 3.6 Gy
- Overall specific absorbed dose coefficient in all lesions, initial diagnosis Pheochromocytoma + paraganglioma (first treatment cycle, median, N = 4): 2.1 Gy/GBq
- Overall specific absorbed dose coefficient in all lesions, initial diagnosis Lung NET (first treatment cycle, median, N = 6): 5.1 Gy/GBq
- Overall specific absorbed dose coefficient in all lesions, initial diagnosis GEP-NET (first treatment cycle, median, N = 23): 5.8 Gy/GBq
- Patients with ADC ratio > 150% between cycle 3 and cycle 1, bone marrow (human, in vivo): 23.8 % of patients
- Patients with ADC ratio > 150% between cycle 3 and cycle 1, kidneys (human, in vivo): 8.3 % of patients
- Patients with ADC ratio > 150% between cycle 3 and cycle 1, liver (human, in vivo): no patients
- Patients with ADC ratio > 150% between cycle 3 and cycle 1, spleen (human, in vivo): 22.2 % of patients
- Mean cumulative absorbed dose in the left and right kidneys, single patient (part A patient, three cycles each at 4.5 GBq, eGFR below normal at baseline, no further deterioration of renal function): 24.1 Gy
- Cumulative bone marrow absorbed dose, single patient (part A patient, three treatment cycles at 4.5, 4.4 and 4.3 GBq, no acute haematological toxicity): 2.2 Gy
- Cumulative absorbed dose, bone marrow, image-based method (part A, cycles 1–3, 11 evaluated patients, median): 1.1 Gy
- Cycle 1 ADC, Tumours (part B (all cohorts), median [range]): 7.9 [1.9–83.3] Gy/GBq
- Cumulative bone marrow absorbed dose, single patient (part B cohort 1 patient, two treatment cycles at 4.7 GBq, no acute haematological toxicity): 1.9 Gy
- Cumulative absorbed dose, kidneys (both left and right) (parts A and B, after cycles 1–3, median, pre-specified limit 23.0 Gy): 10.8 Gy
- Cumulative absorbed dose, bone marrow, image-based (parts A and B, patients who completed three cycles (n = 21), median, pre-specified limit 1.5 Gy): 1.1 Gy
- Cycle 1 ADC of tumours with ADC ratio cycle 3/cycle 1 > 150% (range): 0.6–4.1 Gy/GBq
- Observations of ADC ratio between cycle 3 and cycle 1 in tumours > 150% (share of observations): 6.5%
- Cumulative bone marrow absorbed dose, single patients (two additional patients after treatment cycle 4, individual values): 1.5 Gy and 1.8 Gy
